Laboratory results taken from US20040072368A1, “Lipoprotein receptor” (priority 2002, published 2004).

Key:
[1] = biological target: β-subunit of ATP synthase (F1 fraction) exposed on submitochondrial particles; assay: binding of 5 µg/ml 125I-labeled HDL3 to submitochondrial particles, 2 h at 4 °C, no competitor; conditions: scale: ng HDL3 protein bound per mg of mitochondrial proteins
[2] = biological target: β-subunit of ATP synthase (F1 fraction) exposed on submitochondrial particles; assay: competition with 5 µg/ml 125I-labeled HDL3 on submitochondrial particles, 2 h at 4 °C
[3] = biological target: porcine liver plasma membrane proteins eluted from apoA-I affinity chromatography; assay: SPR (Biacore), 1.5 µg of proteins injected on the apoA-I sensor chip
[4] = biological target: total solubilised porcine liver plasma membrane proteins; assay: SPR (Biacore 3000, B1 chip), apoA-I immobilised by amine coupling, solubilised membrane proteins injected

Row | Substance | 100% specific binding [1] | IC50 (read off the curve) [2] [nM] | relative increase of binding against crude solubilised homogenate [3] [fold] | Kd [4] [nM]
1 | HDL3 (from UniProt P02647 19-267) | 2050 | 800 |  | 
2 | lipid free-apolipoprotein A-I (free-apoA-I) (from UniProt P02647 25-267) (ligand) |  |  | 4 | 1
